Publication doi:10.1101/2021.01.27.428455 (bioRxiv, 2021)
Where “and” joins values, the source holds several entries; their conditions need not be identical. Equal entries are not always repeated. Where two headings read alike, the source gives them in different places.

B2: Lactococcus lactis Csm3 Asp30Ala (natural protein)
chain: MKLVIEGTIVLKTGMHIGGSSDFSAIGAVASPVVRDTLTRLPLIPGSSLKGKMRYLLAKELNNGILLNEPNNDQDEILRLFGSSEKDKIRRARLKFNDIKLSNLAELETFNVSSTEVKFENTINRKTAVANPRQIERVIAGSKFDFEIFYNLDDIKEVEKDFENIKQGFDLLEFDYLGGHGTRGSGRIAFENLSVITAVGNFEKINTLNEILGA

Assays:
Experiment in all cases: cryo-EM structure
cryo-EM structure [1] = molecular target: the molecule itself
[2] = molecular target: B2
cryo-EM structure [3] = molecular target: the molecule itself; remark: listed apart in the source

B1: Lactococcus lactis Csm2 with N-terminal His6-tag (natural protein)
chain: TELKIGNEKVNSTNFGDFAEKAIRGINHKPFVNSKGGEQKITTSKIRGILELVNKVYNRVINTNDVELSENILADIAYIKVKIAYESGREPVVKDFIQRTAFTAAITDVMNQRTRESFLLFARYVESLIAYFKFYGGKD
stoichiometry N (cryo-EM structure [1]): 3 and 2 | binding result [2]: binds

B2
stoichiometry N (cryo-EM structure [3]): 4 | stoichiometry N (cryo-EM structure [1]): 3
